Source: US7799901B2, “Modulators of the function of FAS receptors and other proteins” (Yeda Research and Development Co. Ltd., priority 1995, dated 2010)

What was measured:
Lamin = test: Two-hybrid β-galactosidase expression filter assay in SFY526 yeast, DNA-binding domain hybrid Lamin; conditions: specificity test
Source text: (§1) To isolate proteins interacting with the intracellular domain of the FAS-R, the yeast two-hybrid system was used (Fields and Song, 1989). […] In this system, the genes for the candidate interacting proteins are cloned into separate expression vectors. In one expression vector, the sequence of the one candidate protein is cloned in phase with the sequence of the GAL4 DNA-binding domain to generate a hybrid protein with the GAL4 DNA-binding-domain, and in the other vector, the sequence of the second candidate protein is cloned in phase with the sequence of the GAL4 activation domain to generate a hybrid protein with the GAL4-activation domain. The two hybrid vectors are then co-transformed into a yeast host strain having a lacZ or HIS3 reporter gene under the control of upstream GAL4 binding sites. […]
The yeast two-hybrid test was further applied to evaluate the specificity of binding of MACH to MORT-1, in particular, to define the region in MORT-1 to which MACH binds, as well as to determine which of the MACH ORFs interacts with MORT-1, the procedures being as set forth herein above in Examples 1 and 2. Briefly, various MORT-1 and MACH constructs were prepared for testing the interaction of the proteins encoded by the Gal4 DNA-binding domain and activation domain constructs within transfected SFY526 yeast cells as assessed by the β-galactosidase expression filter assay. […]

FAS-IC = biological target: T1, FAS-IC (Homo sapiens, UniProt P25445); test: Two-hybrid test of MORT-1 binding (FIG. 1), human Fas-IC; conditions: transfected SFY526 yeasts
T1 construct: the FAS-IC extends-from amino acid residues 175-319 of the intact FAS-R; expressed in transfected cells; host or cells: SFY526 yeast
T1 sequence (P25445 191-335): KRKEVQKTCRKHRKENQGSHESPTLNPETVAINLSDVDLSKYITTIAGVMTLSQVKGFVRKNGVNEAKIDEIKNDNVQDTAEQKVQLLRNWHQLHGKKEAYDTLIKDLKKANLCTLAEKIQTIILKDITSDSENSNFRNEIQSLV
Source text: as §1, with “sites. Only those transformed host cells (cotransformants) in which the two hybrid proteins are expressed and are capable of interacting with each other, will be capable of expressing the reporter gene. In the case of the lacZ reporter gene, host cells expressing this gene will become blue in color when X-gal is added to the cultures.” for “sites.”
In FIG. 1, there is depicted the interaction of the proteins encoded by the Gal4 DNA binding domain and activation-domain constructs (pGBT9 and pGAD-GH) within transfected SFY526 yeasts as assessed by β-galactosidase expression filter assay. […]

Row | Molecule | development of color (interaction with DNA-binding domain hybrid) (Lamin) | binding to human Fas-IC in two-hybrid test (FAS-IC)
1 | MACHβ1: MACH isoform, cDNA SEQ ID NO: 4, amino acid SEQ ID NO: 5; lacks the CED3/ICE homology region (protein) MDFSRNLYDIGEQLDSEDLASLKFLSLDYIPQRKQEPIKDALMLFQRLQEKRMLEESNLSFLKELLFRINRLDLLITYLNTRKEEMERELQTPGRAQISAYRVMLYQISEEVSRSELRSFKFLLQEEISKCKLDDDMNLLDIFIEMEKRVILGEGKLDILKRVCAQINKSLLKIINDYEEFSKERSSSLEGSPDEFSNDFGQSLPNEKQTSGILSDHQQSQFCKSTGESAQTSQH | −−− (“−−−” indicates the lack of development of color within 24 hrs. of the assay) | –
2 | MORT-1: Mediator of Receptor-induced Toxicity; protein binding the intracellular domain of FAS-R, SEQ ID NO:2 (protein) VNQAPECRFGGGILGPLGKRRDLARASEPRTEGARRAGPQPRPLADPAMDPFLVLLHSVSSSLSSSELTELKFLCLGRVVKRKLERVQSGLDLFSMLLEQNDLEPGHTELLRELLASLRRHDLLRRVDDFEAGAAAGAAPGEEDLCAAFNVICDNVGKDWRRLARQLKVSDTKIDSIEDRYPRNLTERVRESLRIWKNTEKENATVAHLVGALRSCQMNLVADLVQEVQQARDLQNRSGAMSPMSWNSDASTSEAS | – | binds
